Measurements taken from publication PMC3107245.

Assays:
Assay in all cases: co-IP; 293T cells co-transfected with 1 µg Vpu-cmyc variant and 2 µg HA-tetherin; lysis in 50 mM Tris-HCl pH 7.4, 150 mM NaCl, 1% Triton X-100, 1% CHAPS; IP with anti-myc antibody and protein G agarose at 4°C; blot with anti-HA; tetherin quantified by densitometry, normalized by tubulin, Vpu WT = 100%
[1] = target: Vpu TM M3IT (HIV-1 NL4-3)
[2] = target: Vpu TM NΔ2I (HIV-1 NL4-3)
[3] = target: Vpu TM CΔ2I (HIV-1 NL4-3)
[4] = target: Vpu TM M3IV (HIV-1 NL4-3)

Chain of HA-tetherin (Q10589 1-161): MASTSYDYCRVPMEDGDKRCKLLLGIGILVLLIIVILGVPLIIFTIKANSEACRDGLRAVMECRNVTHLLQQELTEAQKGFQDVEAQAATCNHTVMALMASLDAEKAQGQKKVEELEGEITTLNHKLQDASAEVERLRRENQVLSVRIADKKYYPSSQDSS

“HA-tetherin (from UniProt Q10589 1-161) (natural protein)” showed a percent of tetherin bound relative to Vpu WT (100%) [1] of 10%, a percent of tetherin bound relative to Vpu WT (100%) [2] of 50% and a percent of tetherin bound relative to Vpu WT (100%) [3] of 25%. For the same substance, the percent of tetherin bound relative to Vpu WT (100%) [4] was over 80%.
